Data set [1] deals with T1, Nc1ncnc2c1ncn2[C@@H]1O[C@H](COP(=O)(O)OP(=O)(O)OP(=O)(O)O)[C@@H](O)[C@H]1O.
T1 construct: N-terminal domain removed, starts at residue 141; His6 tag with TEV site (pET28b); expressed in E. coli BL21 (DE3) pLysS; homohexamer
The data set can be described thus: coupled pyruvate kinase/lactate dehydrogenase NADH ATPase assay, Hill fit. The note with it: 10 mM MgCl2, 25 mM Hepes pH 7.8, 25 mM KCl, 0.01% Tween 20, 25 °C, ATP 50 μM to 3 mM, 1 μM ClpB. It is filed as biochemical, Thermus thermophilus. An excerpt:
coupled pyruvate kinase/lactate dehydrogenase NADH ATPase assay, Hill fit on ΔN-ClpB (ClpB) | plotted as a function of ATP concentration and fitted to the Hill equation

Data set [2] deals with ClpB hexamer assembled with a single double-labeled S236C-S359C protomer (PL1 variant) (Thermus thermophilus) (UniProt Q9RA63).
The target is the same in data set [3]. This is another data set of the same source.
The target in data set [4] is ClpB hexamer assembled with a single double-labeled S359C-Y646C protomer (PL3 variant) (Thermus thermophilus) (UniProt Q9RA63).
Chain of ClpB hexamer assembled with a single double-labeled S359C-Y646C protomer (PL3 variant) (Thermus thermophilus) (Q9RA63 141-854 S359C/Y646C, chain 1 of 2): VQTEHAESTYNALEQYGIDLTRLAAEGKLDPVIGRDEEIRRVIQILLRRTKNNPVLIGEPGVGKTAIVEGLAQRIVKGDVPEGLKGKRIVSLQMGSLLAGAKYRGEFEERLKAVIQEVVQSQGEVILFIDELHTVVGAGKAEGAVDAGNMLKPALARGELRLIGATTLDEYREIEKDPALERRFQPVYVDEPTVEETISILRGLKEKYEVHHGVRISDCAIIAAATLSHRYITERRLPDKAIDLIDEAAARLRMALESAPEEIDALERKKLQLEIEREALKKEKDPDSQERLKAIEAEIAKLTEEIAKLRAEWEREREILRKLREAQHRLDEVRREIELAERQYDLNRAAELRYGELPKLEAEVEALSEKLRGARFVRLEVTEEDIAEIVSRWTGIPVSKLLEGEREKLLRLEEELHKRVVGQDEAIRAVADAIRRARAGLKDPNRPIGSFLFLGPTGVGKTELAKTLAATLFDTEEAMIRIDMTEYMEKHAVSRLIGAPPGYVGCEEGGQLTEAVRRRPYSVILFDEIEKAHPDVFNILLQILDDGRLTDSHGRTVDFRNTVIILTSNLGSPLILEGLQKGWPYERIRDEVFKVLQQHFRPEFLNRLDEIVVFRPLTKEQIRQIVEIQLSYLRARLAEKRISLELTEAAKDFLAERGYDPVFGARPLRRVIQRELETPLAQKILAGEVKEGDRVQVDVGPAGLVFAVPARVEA
Chain of ClpB hexamer assembled with a single double-labeled S359C-Y646C protomer (PL3 variant) (Thermus thermophilus) (Q9RA63 141-854, stated change not applied, chain 2 of 2): as the sequence (Q9RA63 141-854 S359C/Y646C, chain 1 of 2) above, with C219S, C506Y counted along it

Chain of ClpB hexamer assembled with a single double-labeled S236C-S359C protomer (PL1 variant) (Thermus thermophilus) (Q9RA63 141-854 S236C/S359C, chain 1 of 2): as the sequence (Q9RA63 141-854 S359C/Y646C, chain 1 of 2) above, with S96C, C506Y counted along it
Chain of ClpB hexamer assembled with a single double-labeled S236C-S359C protomer (PL1 variant) (Thermus thermophilus) (Q9RA63 141-854, stated change not applied, chain 2 of 2): as the sequence (Q9RA63 141-854 S359C/Y646C, chain 1 of 2) above, with C219S, C506Y counted along it
Chain of ΔN-ClpB (ClpB) (Thermus thermophilus HB8) (chain, as listed by the source mutant): as the sequence (Q9RA63 141-854 S359C/Y646C, chain 1 of 2) above, with C219S, C506Y counted along it

In the case of “ΔN-ClpB (ClpB) (Thermus thermophilus HB8)”, in data set [1], the K0.5 came out at 300 ± 20 µM.
In the case of “κ-casein (from UniProt P02668 22-190) (natural protein)”, the smFRET with two-state H2MM analysis, 2 mM ATP: population ratio K12^1 of the two PL1 states without and with 20 μM κ-casein in data set [2] is 0.81. Also, the smFRET: substrate-response factor R1 (ratio of K12^1 with and without 20 μM κ-casein), with ATP in data set [3] is 1.68. Besides, in data set [4], the smFRET: substrate-response factor R3 (ratio of K12^3 with and without 20 μM κ-casein), with ADP was 1.71; the smFRET: substrate-response factor R3 (ratio of K12^3 with and without 20 μM κ-casein), with ATP amounted to 2.28; the smFRET: substrate-response factor R3 (ratio of K12^3 with and without 20 μM κ-casein), with ATPγS was found to be 1.34.

The values are drawn from publication PMC8442866, “Ultrafast pore-loop dynamics in a AAA+ machine point to a Brownian-ratchet mechanism for protein translocation” (Science Advances, 2021).
